Assays:
STAT5B = STAT5B (UniProt P42232); test: anti-STAT5A IP, anti-STAT5B blot; conditions: reference: WT T cells, IL-2 stimulated; sites Y694
STAT5A = STAT5A (UniProt P42230); test: anti-STAT5A IP, anti-STAT5B blot; conditions: reference: WT T cells, IL-2 stimulated; sites Y699

STAT5A (from UniProt P42230) Stat5a KI (Y694F) T cells, IL-2 stimulated
binding against the reference (STAT5B): lost

STAT5B (from UniProt P42232) Stat5b KI (Y699F) T cells, IL-2 stimulated
binding against the reference (STAT5A): lost

From paper PMC11349758
